Measured values taken from PMC12721328, “DNA extrusion size determines pathway choice during CAG repeat expansion”.

Target: MSH2 (MutSβ subunit);MSH3 (MutSβ subunit) (human;human, UniProt P43246;P20585 1-934;1-1137, |)
Experiment: SPR; 10 mM Mg2+; FAN1 SPR: 20 mM Tris-HCl pH 7.6, 70 mM NaCl, 10 mM CaCl2, 1 mM EDTA, 0.01% P-20, 1 mM DTT, 0.05 mg/ml BSA, 5°C; MutSβ SPR: 10 mM Tris-HCl pH 7.6, 150 mM NaCl, 10 mM MgCl2, 1 mM EDTA, 1 mM DTT, 0.005% P-20 (samples held at 10°C)
Conditions: protein: recombinant;recombinant, tags: ;, copies: 1;1, label: 5'-biotin on strand 1, 5'-digoxigenin on strand 2, blunt

B1: (CAG)1 extrusion mr78 (dsDNA)
DNA 1: CGAATTTCTAGACTCGAGATCAGCTGCTAGGTCGAGTCTAGAG
DNA 2: CTCTAGACTCGACCTAGCAGATCTCGAGTCTAGAAATTCG
B1 was tested, and the Kd (central 3-nt extrusion in strand 1, 20 bp each side) was 500 ± 100 pM.

B2: (CAG)2 extrusion mr78 (dsDNA)
DNA 1: CGAATTTCTAGACTCGAGATCAGCAGCTGCTAGGTCGAGTCTAGAG
DNA 2: B1 DNA 2
In the case of B2, the Kd (central 6-nt extrusion in strand 1, 20 bp each side) is reported as 500 ± 160 pM.

B3: (CAG)13 extrusion mr78 (dsDNA)
DNA 1: CGAATTTCTAGACTCGAGATCAGCAGCAGCAGCAGCAGCAGCAGCAGCAGCAGCAGCAGCTGCTAGGTCGAGTCTAGAG
DNA 2: B1 DNA 2
B3 showed a Kd (central 39-nt extrusion in strand 1, 20 bp each side) of 4200 ± 1500 pM.

B4: (CAG)3 extrusion mr78 (dsDNA)
DNA 1: CGAATTTCTAGACTCGAGATCAGCAGCAGCTGCTAGGTCGAGTCTAGAG
DNA 2: B1 DNA 2
Work on B4 yielded a Kd (central 9-nt extrusion in strand 1, 20 bp each side) of 1200 ± 400 pM.
